T1: MTDH (364-582) (Homo sapiens, UniProt Q86UE4)
T1 construct: made in house; host or cells: E. coli DH5α
T1 sequence (Q86UE4 364-582): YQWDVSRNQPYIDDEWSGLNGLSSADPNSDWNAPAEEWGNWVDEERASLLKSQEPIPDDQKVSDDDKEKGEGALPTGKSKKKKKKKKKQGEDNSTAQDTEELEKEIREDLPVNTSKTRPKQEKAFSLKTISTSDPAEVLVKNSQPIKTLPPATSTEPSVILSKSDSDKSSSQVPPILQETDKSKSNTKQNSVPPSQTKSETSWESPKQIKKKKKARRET

T2: Myc-MTDH (Homo sapiens, UniProt Q86UE4, A78S/T317A)
T2 construct: Full-length HA-tagged SND1 was co-expressed with full-length Myc-tagged wild-type (WT) or mutant MTDH in HEK293T cells; expressed in transfected cells; host or cells: HEK293T
T2 sequence (Q86UE4 1-582 A78S/T317A): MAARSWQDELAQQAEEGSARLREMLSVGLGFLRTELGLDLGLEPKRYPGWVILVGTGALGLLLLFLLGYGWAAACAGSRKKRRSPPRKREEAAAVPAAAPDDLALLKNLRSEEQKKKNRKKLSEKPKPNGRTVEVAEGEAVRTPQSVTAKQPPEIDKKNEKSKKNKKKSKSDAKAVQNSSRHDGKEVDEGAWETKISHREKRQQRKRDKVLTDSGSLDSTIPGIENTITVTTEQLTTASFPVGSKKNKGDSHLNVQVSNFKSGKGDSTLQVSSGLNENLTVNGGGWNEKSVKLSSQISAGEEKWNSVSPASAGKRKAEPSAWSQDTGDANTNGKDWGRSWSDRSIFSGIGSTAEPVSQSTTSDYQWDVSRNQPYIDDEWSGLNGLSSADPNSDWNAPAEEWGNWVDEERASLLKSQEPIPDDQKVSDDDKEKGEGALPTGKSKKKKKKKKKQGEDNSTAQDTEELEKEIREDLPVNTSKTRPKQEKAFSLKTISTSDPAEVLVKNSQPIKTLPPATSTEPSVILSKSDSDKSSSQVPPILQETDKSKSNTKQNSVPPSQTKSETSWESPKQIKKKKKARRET


Legend:
MTDH (364-582) = molecular target: T1, MTDH (364-582); test: GST-mediated pull-down of SND1 constructs and mutants by GST-tagged MTDH (364-582); format: binding; conditions: SND1 mutants in SND1 (16-339)
Source text: (§1) (FIG. 22A) In vitro pull-down of SND1 (16-339) by GST-tagged MTDH (364-582) harboring WT or mutant sequence. The proteins bound to GS4B were examined on SDS-PAGE and visualized by Coomassie blue staining. (FIG. 22B) In vitro pull-down of WT and mutant SND1 (16-339) by GST-tagged MTDH (364-582). The bound proteins were examined as in (FIG. 22A). For both (FIG. 22A) and (FIG. 22B), experiments were repeated three times; representative results are shown. The normalized percentage of binding was averaged from three experiments; mean±SEM was shown below the data. (FIG. 22C) HEK293T cells were transfected with human HA-SND1, WT Myc-MTDH or Myc-MTDH with indicated single point mutation. Lysates were immunoprecipitated with anti-Myc antibody and immunoblotted with the indicated antibodies. (FIG. 22D) HEK293T cells were transfected with human Myc-MTDH, WT HA-SND1 or mutant HA-SND1 with indicated single point mutations or deletions. Lysates were immunoprecipitated with anti-Myc and immunoblotted with the indicated antibodies.
GST-Mediated Pull-Down Assay: ˜20 μg of GST-MTDH (different truncation forms and site mutants) was bound to 10 μl of glutathione resin via GST tag. The resin was washed with 200 μl assay buffer (25 mM Tris, PH8.0, 150 mM NaCl, 3 mM DTT) three times to remove the excess unbound protein. 15 μg of His-SND1 (16-339) was added to the resin in a 100 μl volume suspended in the assay buffer with 2 mg/ml of BSA. The mixture was washed with 200 μl assay buffer twice before examined by SDS-PAGE, and visualized by Coomassie blue staining. The experiments were repeated 3 times and the ratio of SND1 associated with GST-MTDH was analyzed by ImageJ.

Myc-MTDH = molecular target: T2, Myc-MTDH; test: Co-immunoprecipitation of HA-SND1 (WT or mutant) with Myc-MTDH in HEK293T cells; format: cell-based; conditions: HEK293T cell lysates
Source text: as §1
Immunoprecipitation and western blot: For in vivo immunoprecipitation (IP) experiments, cultured cells were washed in cold PBS and lysed in lysis buffer (20 mM Tris pH 7.4, 0.15 M NaCl, 1 mM EDTA, 1 mM EGTA, 1% Tx-100, 0.0025 M Na2P2O7, 1 mM β-glycerolphosphate, 1 mM Na3VO4, and 1 mM NaF) with an EDTA-free protease inhibitor mixture (Roche Applied Science) and PMSF. Cell lysates were then incubated on ice for 10 min, centrifuged, and precleared by incubating with protein A/G beads (Santa Cruz Biotechnology) for 1 h at 4° C. For IP bead preparation, 30 μl of protein A/G beads were incubated with 5 μg of antibodies for 2 h at 4° C. IPs were carried out for overnight at 4° C., and beads were centrifuged, washed and subsequently boiled for 5 min in SDS protein loading buffer to elute bound protein. IP lysates were subjected to western blotting with indicated antibodies.

| Molecule | MTDH-binding of SND1 domains and mutants, in vitro (MTDH (364-582)) | interaction of full-length HA-SND1 (WT or mutant) with Myc-MTDH (Myc-MTDH) |
| --- | --- | --- |
| R255E: SND1 mutant R255E (protein, listed as Homo sapiens) MASSAQSGGSSGGPAVPTVQRGIIKMVLSGCAIIVRGQPRGGPPPERQINLSNIRAGNLARRAAATQPDAKDTPDEPWAFPAREFLRKKLIGKEVCFTIENKTPQGREYGMIYLGKDTNGENIAESLVAEGLATRREGMRANNPEQNRLSECEEQAKAAKKGMWSEGNGSHTIRDLKYTIENPRHFVDSHHQKPVNAIIEHVRDGSVVRALLLPDYYLVTVMLSGIKCPTFRREADGSETPEPFAAEAKFFTESELLQRDVQIILESCHNQNILGTILHPNGNITELLLKEGFARCVDWSIAVYTRGAEKLRAAERFAKERRLRIWRDYVAPTANLDQKDKQFVAKVMQVLNADAIVVKLNSGDYKTIHLSSIRPPRLEGENTQDKNKKLRPLYDIPYMFEAREFLRKKLIGKKVNVTVDYIRPASPATETVPAFSERTCATVTIGGINIAEALVSKGLATVIRYRQDDDQRSSHYDELLAAEARAIKNGKGLHSKKEVPIHRVADISGDTQKAKQFLPFLQRAGRSEAVVEYVFSGSRLKLYLPKETCLITFLLAGIECPRGARNLPGLVQEGEPFSEEATLFTKELVLQREVEVEVESMDKAGNFIGWLHIDGANLSVLLVEHALSKVHFTAERSSYYKSLLSAEEAAKQKKEKVWAHYEEQPVEEVMPVLEEKERSASYKPVFVTEITDDLHFYVQDVETGTQLEKLMENMRNDIASHPPVEGSYAPRRGEFCIAKFVDGEWYRARVEKVESPAKIHVFYIDYGNREVLPSTRLGTLSPAFSTRVLPAQATEYAFAFIQVPQDDDARTDAVDSVVRDIQNTQCLLNVEHLSAGCPHVTLQFADSKGDVGLGLVKEGLVMVEVRKEKQFQKVITEYLNAQESAKSARLNLWRYGDFRADDADEFGYSR | almost completely abolished MTDH-binding | nearly completely abolished MTDH-binding |
| WT HA-SND1: full-length HA-tagged wild-type human SND1 (protein) MASSAQSGGSSGGPAVPTVQRGIIKMVLSGCAIIVRGQPRGGPPPERQINLSNIRAGNLARRAAATQPDAKDTPDEPWAFPAREFLRKKLIGKEVCFTIENKTPQGREYGMIYLGKDTNGENIAESLVAEGLATRREGMRANNPEQNRLSECEEQAKAAKKGMWSEGNGSHTIRDLKYTIENPRHFVDSHHQKPVNAIIEHVRDGSVVRALLLPDYYLVTVMLSGIKCPTFRREADGSETPEPFAAEAKFFTESRLLQRDVQIILESCHNQNILGTILHPNGNITELLLKEGFARCVDWSIAVYTRGAEKLRAAERFAKERRLRIWRDYVAPTANLDQKDKQFVAKVMQVLNADAIVVKLNSGDYKTIHLSSIRPPRLEGENTQDKNKKLRPLYDIPYMFEAREFLRKKLIGKKVNVTVDYIRPASPATETVPAFSERTCATVTIGGINIAEALVSKGLATVIRYRQDDDQRSSHYDELLAAEARAIKNGKGLHSKKEVPIHRVADISGDTQKAKQFLPFLQRAGRSEAVVEYVFSGSRLKLYLPKETCLITFLLAGIECPRGARNLPGLVQEGEPFSEEATLFTKELVLQREVEVEVESMDKAGNFIGWLHIDGANLSVLLVEHALSKVHFTAERSSYYKSLLSAEEAAKQKKEKVWAHYEEQPVEEVMPVLEEKERSASYKPVFVTEITDDLHFYVQDVETGTQLEKLMENMRNDIASHPPVEGSYAPRRGEFCIAKFVDGEWYRARVEKVESPAKIHVFYIDYGNREVLPSTRLGTLSPAFSTRVLPAQATEYAFAFIQVPQDDDARTDAVDSVVRDIQNTQCLLNVEHLSAGCPHVTLQFADSKGDVGLGLVKEGLVMVEVRKEKQFQKVITEYLNAQESAKSARLNLWRYGDFRADDADEFGYSR | – | bound readily with Myc-MTDH |
| F250A: SND1 mutant F250A (protein, listed as Homo sapiens) MASSAQSGGSSGGPAVPTVQRGIIKMVLSGCAIIVRGQPRGGPPPERQINLSNIRAGNLARRAAATQPDAKDTPDEPWAFPAREFLRKKLIGKEVCFTIENKTPQGREYGMIYLGKDTNGENIAESLVAEGLATRREGMRANNPEQNRLSECEEQAKAAKKGMWSEGNGSHTIRDLKYTIENPRHFVDSHHQKPVNAIIEHVRDGSVVRALLLPDYYLVTVMLSGIKCPTFRREADGSETPEPFAAEAKAFTESRLLQRDVQIILESCHNQNILGTILHPNGNITELLLKEGFARCVDWSIAVYTRGAEKLRAAERFAKERRLRIWRDYVAPTANLDQKDKQFVAKVMQVLNADAIVVKLNSGDYKTIHLSSIRPPRLEGENTQDKNKKLRPLYDIPYMFEAREFLRKKLIGKKVNVTVDYIRPASPATETVPAFSERTCATVTIGGINIAEALVSKGLATVIRYRQDDDQRSSHYDELLAAEARAIKNGKGLHSKKEVPIHRVADISGDTQKAKQFLPFLQRAGRSEAVVEYVFSGSRLKLYLPKETCLITFLLAGIECPRGARNLPGLVQEGEPFSEEATLFTKELVLQREVEVEVESMDKAGNFIGWLHIDGANLSVLLVEHALSKVHFTAERSSYYKSLLSAEEAAKQKKEKVWAHYEEQPVEEVMPVLEEKERSASYKPVFVTEITDDLHFYVQDVETGTQLEKLMENMRNDIASHPPVEGSYAPRRGEFCIAKFVDGEWYRARVEKVESPAKIHVFYIDYGNREVLPSTRLGTLSPAFSTRVLPAQATEYAFAFIQVPQDDDARTDAVDSVVRDIQNTQCLLNVEHLSAGCPHVTLQFADSKGDVGLGLVKEGLVMVEVRKEKQFQKVITEYLNAQESAKSARLNLWRYGDFRADDADEFGYSR | almost completely abolished MTDH-binding | nearly completely abolished MTDH-binding |
| R324A: SND1 mutant R324A (protein, left off: small tags and cut ends) VPTVQRGIIKMVLSGCAIIVRGQPRGGPPPERQINLSNIRAGNLARRAAATQPDAKDTPDEPWAFPAREFLRKKLIGKEVCFTIENKTPQGREYGMIYLGKDTNGENIAESLVAEGLATRREGMRANNPEQNRLSECEEQAKAAKKGMWSEGNGSHTIRDLKYTIENPRHFVDSHHQKPVNAIIEHVRDGSVVRALLLPDYYLVTVMLSGIKCPTFRREADGSETPEPFAAEAKFFTESRLLQRDVQIILESCHNQNILGTILHPNGNITELLLKEGFARCVDWSIAVYTRGAEKLRAAERFAKERRLAIWRDYVAPTANLDQK | barely affected MTDH-binding | – |
| SN3/4-TSN5 domains: SND1 C-terminal SN3/4-TSN5 domains, amino acids 340-885 of SEQ ID NO: 2 (protein, listed as Homo sapiens) DKQFVAKVMQVLNADAIVVKLNSGDYKTIHLSSIRPPRLEGENTQDKNKKLRPLYDIPYMFEAREFLRKKLIGKKVNVTVDYIRPASPATETVPAFSERTCATVTIGGINIAEALVSKGLATVIRYRQDDDQRSSHYDELLAAEARAIKNGKGLHSKKEVPIHRVADISGDTQKAKQFLPFLQRAGRSEAVVEYVFSGSRLKLYLPKETCLITFLLAGIECPRGARNLPGLVQEGEPFSEEATLFTKELVLQREVEVEVESMDKAGNFIGWLHIDGANLSVLLVEHALSKVHFTAERSSYYKSLLSAEEAAKQKKEKVWAHYEEQPVEEVMPVLEEKERSASYKPVFVTEITDDLHFYVQDVETGTQLEKLMENMRNDIASHPPVEGSYAPRRGEFCIAKFVDGEWYRARVEKVESPAKIHVFYIDYGNREVLPSTRLGTLSPAFSTRVLPAQATEYAFAFIQVPQDDDARTDAVDSVVRDIQNTQCLLNVEHLSAGCPHVTLQFADSKGDVGLGLVKEGLVMVEVRKEKQFQKVITEYLNAQESA | barely interact with MTDH | – |
